Data on two substances can be found in article PMC11417181.

The Kd is the constant that tells how readily two partners part at equilibrium. One may read the stoichiometry N as the number of molecules, sites or subunits per partner or assembly.

The target in one assay is C3b C3b (Homo sapiens) (UniProt P01024). The settings on record: cited from earlier work.
Assay [1] addresses SCR-17/18H deglycosylated with PNGase F (human). The assay can be described thus: AUC; sedimentation velocity of the SCR fragments, 20 °C, 50,000 rpm, Hepes buffer (10 mM Hepes, 137 mM NaCl, pH 7.4), c(s) analysis in SEDFIT, proportions of monomer and dimer from peak integration; monomer to dimer.

Sequence of Complement factor H (P08603 19-1231): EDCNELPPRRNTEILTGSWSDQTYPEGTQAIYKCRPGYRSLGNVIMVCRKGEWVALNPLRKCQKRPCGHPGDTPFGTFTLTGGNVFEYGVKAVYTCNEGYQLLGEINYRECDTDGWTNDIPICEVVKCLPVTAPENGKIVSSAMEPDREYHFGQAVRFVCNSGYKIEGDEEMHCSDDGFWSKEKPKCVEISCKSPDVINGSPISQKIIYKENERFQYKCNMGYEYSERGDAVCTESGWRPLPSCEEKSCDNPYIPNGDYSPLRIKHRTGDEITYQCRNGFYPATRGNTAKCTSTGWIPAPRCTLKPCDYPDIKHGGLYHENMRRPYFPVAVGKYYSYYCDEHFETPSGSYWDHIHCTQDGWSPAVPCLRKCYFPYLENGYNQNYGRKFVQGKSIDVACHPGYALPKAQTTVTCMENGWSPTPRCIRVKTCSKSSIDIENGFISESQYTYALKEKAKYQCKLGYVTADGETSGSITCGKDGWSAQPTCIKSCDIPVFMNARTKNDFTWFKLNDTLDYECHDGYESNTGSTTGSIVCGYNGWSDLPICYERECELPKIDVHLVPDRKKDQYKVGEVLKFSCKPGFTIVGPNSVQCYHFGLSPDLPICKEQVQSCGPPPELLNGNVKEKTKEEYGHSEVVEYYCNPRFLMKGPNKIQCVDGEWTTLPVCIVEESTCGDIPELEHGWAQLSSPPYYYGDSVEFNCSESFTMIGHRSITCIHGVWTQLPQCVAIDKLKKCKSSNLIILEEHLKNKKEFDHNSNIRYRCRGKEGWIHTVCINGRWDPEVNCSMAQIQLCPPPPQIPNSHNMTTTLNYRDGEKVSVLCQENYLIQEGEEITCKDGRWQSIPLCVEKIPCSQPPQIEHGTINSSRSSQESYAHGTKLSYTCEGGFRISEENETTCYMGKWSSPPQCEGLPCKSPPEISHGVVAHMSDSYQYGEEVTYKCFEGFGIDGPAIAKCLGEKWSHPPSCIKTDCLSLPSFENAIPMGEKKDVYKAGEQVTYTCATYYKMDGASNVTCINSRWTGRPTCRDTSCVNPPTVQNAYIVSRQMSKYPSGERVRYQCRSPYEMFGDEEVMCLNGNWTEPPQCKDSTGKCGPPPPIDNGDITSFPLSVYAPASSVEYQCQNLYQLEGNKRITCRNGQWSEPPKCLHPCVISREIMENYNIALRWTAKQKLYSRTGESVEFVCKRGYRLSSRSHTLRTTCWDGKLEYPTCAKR
Sequence of C3b C3b (Homo sapiens) (P01024 566-670): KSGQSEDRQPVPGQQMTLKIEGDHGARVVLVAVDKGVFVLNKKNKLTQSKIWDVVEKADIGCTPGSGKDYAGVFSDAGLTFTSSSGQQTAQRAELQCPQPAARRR

As to “Complement factor H (from UniProt P08603)”, the Kd in the assay with C3b C3b (Homo sapiens) was 1060 nM. In assay [1], “SCR-17/18H deglycosylated with PNGase F (domain or fragment)” returned a proportion of dimer of 16% and a stoichiometry N of 2.
